From paper PMC8551270 (Scientific Reports, 2021)
“Also recorded” adds a separate entry of the source.

Assays:
[1] = plasma samples from minipigs dosed i.v., pooled from two minipigs for each time point; settings: Göttingen Minipigs, up to 288 h post dosing
[2] = molecular target: PYY3-36 analogue 58: [Lys4(TAMRA), Lys30(C14 diacid-gammaGlu-2xAdo)]PYY3-36 L30K (acylated) (UniProt P10082); experiment: fluorescence polarization (TAMRA-labelled peptide; excitation 535/25 nm, emission 595/35 nm; Tecan Spark, 384-well plate); settings: room temperature, 140 mM NaCl at pH 7.4, 150 mM NaCl at pH 6.0, 10 mM sodium phosphate at pH 7.4, 20 mM MES at pH 6.0
Chain of PYY3-36 analogue 58: [Lys4(TAMRA), Lys30(C14 diacid-gammaGlu-2xAdo)]PYY3-36 L30K (acylated) (P10082 whole entry, stated change not applied): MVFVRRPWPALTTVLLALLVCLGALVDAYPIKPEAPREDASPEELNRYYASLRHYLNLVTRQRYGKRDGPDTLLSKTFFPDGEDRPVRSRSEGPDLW

[3] = molecular target: PYY3-36 analogue 56: [Lys4(TAMRA), Lys30(C18 diacid-gammaGlu-2xAdo)]PYY3-36 L30K (acylated) (UniProt P10082); experiment: as above; settings: room temperature, 140 mM NaCl at pH 7.4, 150 mM NaCl at pH 6.0, 10 mM sodium phosphate at pH 7.4, 20 mM MES at pH 6.0
Chain of PYY3-36 analogue 56: [Lys4(TAMRA), Lys30(C18 diacid-gammaGlu-2xAdo)]PYY3-36 L30K (acylated) (P10082 whole entry, stated change not applied): as above

[4] = molecular target: PYY3-36 analogue 60: [Lys4(TAMRA), Lys30(C20 diacid-gammaGlu-2xAdo)]PYY3-36 L30K (acylated) (UniProt P10082); experiment: as above; settings: room temperature, 140 mM NaCl at pH 7.4, 150 mM NaCl at pH 6.0, 10 mM sodium phosphate at pH 7.4, 20 mM MES at pH 6.0
Chain of PYY3-36 analogue 60: [Lys4(TAMRA), Lys30(C20 diacid-gammaGlu-2xAdo)]PYY3-36 L30K (acylated) (P10082 whole entry, stated change not applied): as above

[5] = molecular target: PYY3-36 analogue 59: [Lys4(TAMRA), Lys30(C16 diacid-gammaGlu-2xAdo)]PYY3-36 L30K (acylated) (UniProt P10082); experiment: as above; settings: room temperature, 140 mM NaCl at pH 7.4, 150 mM NaCl at pH 6.0, 10 mM sodium phosphate at pH 7.4, 20 mM MES at pH 6.0
Chain of PYY3-36 analogue 59: [Lys4(TAMRA), Lys30(C16 diacid-gammaGlu-2xAdo)]PYY3-36 L30K (acylated) (P10082 whole entry, stated change not applied): as above

[6] = cited from earlier work

Substance | Kd ([2]; pH 6.0) [nM] | Kd ([2]; pH 7.4) [nM] | Kd ([3]; pH 6.0) [nM] | Kd ([3]; pH 7.4) [nM] | Kd ([4]; pH 6.0) [nM] | Kd ([4]; pH 7.4) [nM] | Kd ([5]; pH 6.0) [nM] | Kd ([5]; pH 7.4) [nM] | fragment found [1] | further results
[(C18diacid-γGlu-2xAdo)]PYY3-36 | – | – | – | – | – | – | – | – | PYY3-34; also recorded: PYY3-35 | –
[C20diacid-Trx-γGlu-2xAdo]PYY3-36 | – | – | – | – | – | – | – | – | [C20diacid-Trx-LgGly-2xAdo]PYY3-34, major | –
[K^ε30(C18diacid-γGlu-2xAdo)]PYY3-36 | – | – | – | – | – | – | – | – | PYY4-36, minor; also recorded: PYY6-36, minor | –
semaglutide | – | – | – | – | – | – | – | – | – | half-life in the minipig model [6]: approximately 46 hours

Second part, led by results:

Kd ([2]; pH 6.0) [nM] | Kd ([2]; pH 7.4) [nM] | Kd ([3]; pH 6.0) [nM] | Kd ([3]; pH 7.4) [nM] | Kd ([4]; pH 6.0) [nM] | Kd ([4]; pH 7.4) [nM] | Kd ([5]; pH 6.0) [nM] | Kd ([5]; pH 7.4) [nM] | Substance | fragment found [1] | further results
23000 | 44000 | 930 | 580 | 350 | 98 | 4700 | 4200 | human serum albumin (HSA), fatty-acid free | – | –
34000 | 48000 | 890 | 600 | 460 | 270 | 5300 | 4500 | porcine serum albumin (PSA), charcoal-defatted | – | –
